Test results from paper PMC6134095.

Key:
[1] = biological target: FITC-labeled FtsB 64–87 peptide (E. coli) (UniProt P0A6S5); assay: fluorescence polarisation; 10 nM FITC-labeled FtsB 64–87 peptide, FtsQ in threefold dilutions from 800 µM to 0.5 nM; 10 mM HEPES pH 7.4, 150 mM NaCl, 0.1% Tween 20; 1 h at room temperature
[2] = biological target: FtsQ (58–276), periplasmic domain of E. coli FtsQ (Escherichia coli strain K-12) (UniProt P06136); assay: SPR; FtsQ (58–276) immobilised on a CM5 chip by amide coupling (~1,000 RU); Biacore T200, 20°C; 10 mM HEPES pH 7.4, 150 mM NaCl, 0.4% glycerol; analytes injected 120 s, 600 s dissociation, 1:2 dilution series, triplicate
FtsQ (58–276), periplasmic domain of E. coli FtsQ (Escherichia coli strain K-12), sequence (P06136 58-276): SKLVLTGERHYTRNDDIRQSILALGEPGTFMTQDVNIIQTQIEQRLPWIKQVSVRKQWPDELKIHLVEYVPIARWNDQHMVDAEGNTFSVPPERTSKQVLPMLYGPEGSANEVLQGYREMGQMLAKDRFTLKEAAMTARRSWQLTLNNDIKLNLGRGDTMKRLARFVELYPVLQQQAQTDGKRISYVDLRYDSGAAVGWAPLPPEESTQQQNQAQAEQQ

FtsN (58–320) plus FtsB (22–103), bound together, sequence (A7ZQJ2 22-103): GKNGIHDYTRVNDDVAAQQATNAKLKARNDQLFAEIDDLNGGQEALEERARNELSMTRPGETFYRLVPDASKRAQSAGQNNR
FtsN (58–320) plus FtsB (22–103), bound together, sequence (P29131 57-319): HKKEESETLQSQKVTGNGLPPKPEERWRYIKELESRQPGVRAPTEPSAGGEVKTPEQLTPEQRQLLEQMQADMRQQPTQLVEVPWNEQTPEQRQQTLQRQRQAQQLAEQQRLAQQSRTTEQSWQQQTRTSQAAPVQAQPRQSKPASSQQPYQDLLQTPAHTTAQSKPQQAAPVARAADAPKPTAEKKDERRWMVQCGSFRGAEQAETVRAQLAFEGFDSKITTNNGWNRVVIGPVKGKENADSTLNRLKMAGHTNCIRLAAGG
FtsN (57–319), periplasmic domain of E. coli FtsN, sequence (P29131 57-319): as above

A Kd [1] of 9500 nM was found for “FtsQ (58–276), periplasmic domain of E. coli FtsQ (from UniProt P06136 58-276) (domain or fragment)” in this work.

A Kd [2] of 2500 nM was found for “FtsN (57–319), periplasmic domain of E. coli FtsN (from UniProt P29131 57-319) (domain or fragment)” in this work.

A Kd of FtsB and FtsN bound together [2] of 120 nM was found for “FtsN (58–320) plus FtsB (22–103), bound together (from UniProt P0A6S5 22-103; P29131 57-319)” in this work.

A fold reduction of binding against wild-type FtsB [2] of 10 fold was found for “FtsB R72A (from UniProt P0A6S5 22-103) (domain or fragment)” in this work.

A fold reduction of binding against wild-type FtsB [2] of 10 fold was found for “FtsB F84A (from UniProt P0A6S5 22-103) (domain or fragment)” in this work.
